The values that follow come from patent US20110091971A1, “Differentiation of Pluripotent Stem Cells” (priority 2008, published 2011).

Changes are numbered by the printed parent chain.

B1: ACTN84: activin A variant peptide, SEQ ID 85 (protein)
chain: GLECDGKVNICCKKQSFGQAKDIGWNDWIIAPSGYHGGGCSGECPSHIAGTSGSSLSFHSTVINHYRMRGHSPFANLKSCCSPTKLRPMSMLYYDDGQNIIKKDIQNMVVEECGCT
B2: ACTN89: activin A variant peptide, SEQ ID 90 (protein)
chain: B1 chain with S16L, A20T, F74N, V109K
B3: ACTN90: activin A variant peptide, SEQ ID 91 (protein)
chain: B1 chain with A20T, G39S, V109K
B4: ACTN87: activin A variant peptide, SEQ ID 88 (protein)
chain: B1 chain with G39S
B5: ACTN24: activin A variant peptide, SEQ ID 25 (protein)
chain: GLECDGKVNLCCKKQDFVSFKDIGWNDWIIAPSGYHANRCSGRCPSHIAGTSGSSLSFHSTVINHYRMRGHSPFSDMGSCCVPTKLRPMSMLYYDDGQNIIKKDIQNMIVEECGCS
B6: ACTN25: activin A variant peptide, SEQ ID 26 (protein)
chain: B5 chain with D16N, R39E, R43L, D76Q, V82I

The first assay relates to H1 or H9 human embryonic stem cells. The assay can be described thus: Activin A bioassay: differentiation of human embryonic stem cells to definitive endoderm, cell number and SOX17 intensity by high content analysis (96-well, four days).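 On Cell Number average: Raw total cell count per well from high content imaging.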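 On Sox 17 Intensity average: total fluorescence of the cell multiplied by cell area.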 Format: cell-based. As to conditions: supernatant concentration 1x, assay dilution 1:20. The procedure, abridged: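 Read-out was cell count and integrated SOX17 immunofluorescence by high-content imaging, with each well divided by the mean of the 100 ng/ml activin A control. Over the four-day culture, test samples were given in DMEM:F12 with 0.5% FCS plus 20 ng/ml Wnt3a for the first two days and in 2% FCS alone for the last two. Cells were H1 or H9 hESC clusters grown on Matrigel.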
In the case of B1, the “Cell Number average” value worked out at 1976 and the “Sox 17 Intensity average” value was 3.37E+05.
On the same counts, the results for B2 are 5495 and 3.63E+05.
On the same counts, the results for B3 are 1727 and 1.34E+06.
On the same counts, the results for B4 are 1548 and 5.85E+05.

Staying with this assay, now noted: supernatant concentration 1x, assay dilution 1:20; control = R&D Sys Activin A 100 ng/ml on same plate.
Consider B1, for which the “Sox 17 Intensity % of control” value is 1.5%.
The same measure, in the same setting: the same measure for B2: 1.6%; for B3: 5.9%.
Same read-out and setting: the same measure for B4: 2.6%.

The assay is the same for the next values; noted with them: supernatant concentration 10x, assay dilution 1:20.
Consider B1, for which the “Cell Number average” value turned out to be 2272 and the “Sox 17 Intensity average” value amounted to 2.65E+05.
On the same counts, the results for B2 are 5558 and 5.77E+05.
On the same counts, the results for B3 are 2819 and 4.13E+05.
For the molecule B4, the “Cell Number average” value was determined as 3258 and the “Sox 17 Intensity average” value is on record as 7.89E+05.

The assay is the same for the next values; noted with them: supernatant concentration 10x, assay dilution 1:20; assay plates #007, #009, #010.
For B5, the “Cell Number average” value is 3261 and the “Sox 17 Intensity average” value amounted to 2.91E+06.
On the same counts, the results for B6 are 5043 and 3.55E+06.

The assay is the same for the next values; noted with them: supernatant concentration 10x, assay dilution 1:20; control = R&D Sys Activin A 100 ng/ml on same plate.
Regarding B5, the “Sox 17 Intensity % of control” value stood at 13.2%.
Still for that read-out and setting: the same measure for B6: 16.1%.
On the same count and under the same terms, the figure for B1 is 1.2%; for B2 it is 2.5%.
Same read-out and setting: the figure for B3 is 1.8%; for B4 it is 3.4%.

The assay is the same for the next values; noted with them: supernatant concentration 10x, assay dilution 1:40.
For the molecule B1, the “Cell Number average” value is 5228 and the “Sox 17 Intensity average” value is reported as 8.40E+05.
On the same counts, the results for B2 are 4474 and 7.23E+05.
On the same counts, the results for B3 are 3042 and 1.33E+06.
Take B4: the “Cell Number average” value turned out to be 3613 and the “Sox 17 Intensity average” value amounted to 3.99E+05.

Staying with this assay, now noted: supernatant concentration 10x, assay dilution 1:40; control = R&D Sys Activin A 100 ng/ml on same plate.
As to B1, the “Sox 17 Intensity % of control” value worked out at 3.7%.
Same read-out and setting: the figure for B2 is 3.2%.
On the same count and under the same terms, the same measure for B3: 5.8%.
On to B4, for which the “Sox 17 Intensity % of control” value is listed as 1.7%.

The assay is the same for the next values; noted with them: supernatant concentration 50x, assay dilution 1:20; assay plates #008, #009.
For the molecule B5, the “Cell Number average” value was 4785 and the “Sox 17 Intensity average” value was determined as 1.04E+07.
On the same counts, the results for B6 are 4620 and 1.52E+07.

The assay is the same for the next values; noted with them: supernatant concentration 50x, assay dilution 1:20; control = R&D Sys Activin A 100 ng/ml on same plate.
For the molecule B5, the “Sox 17 Intensity % of control” value stood at 18.8%.
As for B6, the “Sox 17 Intensity % of control” value turned out to be 27.6%.
